From US20160311916A1 (ALLIGATOR BIOSCIENCE, published 2016)

How the values were obtained:
human CD40 [1] = target: T1, human CD40 (human, UniProt P25942 21-277); assay: cell-based or functional assay
human CD40 [2] = target: T1, human CD40; assay: cell-based or functional assay; remark: listed apart in the source
[3] = target: T2, Fc-fused CD40 (Ancell, #504-820) (human, UniProt P25942 21-193); assay: ELISA, coated Fc-fused CD40, full IgG
T2 construct: Bought reagent; not shown: Fc part of the bought fusion protein
Procedure: (§1) Purified full IgG molecules were analysed with ELISA. High binding flat bottom LIA plates (Greiner #655074) were coated with Fc-fused CD40 (Ancell, #504-820) at 0.05 μg/ml, and milk powder were used at 3% for blocking and at 1% for dilution. The antibodies to be tested were added in serial dilutions starting at 50 μg/ml and detection was carried out using HRP conjugated goat anti human Ig-Fc (Jackson ImmunoResearch, #109-035-098) and Super Signal Pico Chemiluminescent (ThermoScientific, #37069) was used as substrate.

[4] = target: T2, Fc-fused CD40 (Ancell, #504-820); assay: CD40 binding ELISA (summary table, Example 3)
Procedure: as §1

[5] = target: T3, CD40hfc (R&Dsystems, USA) (human, UniProt P25942 21-193); assay: SPR Biacore 3000, CD40hfc immobilized (summary table, Example 6)
T3 construct: Bought reagent, amine-coupled to a CM5 chip; not shown: Fc part of the bought fusion protein
Procedure: (§2) The affinity constants of purified antibodies were assessed by surface plasmon resonance using the Biacore 3000 instrument according to manufacturer's protocols. CD40hfc (R&Dsystems, USA) was immobilized to the BIAcore sensorchip, CM5, using conventional amine coupling. Association was followed for 3 minutes and dissociation for 12 minutes. Regeneration was performed twice using 50 mM NaOH for 30 seconds. The kinetic parameters and the affinity constants were calculated using BIAevaluation 4.1 software. The CD40 antibody clones were run over the sensor at a flow rate of 30 μl/min in HBS-P (GE, BR-1003-68) at concentration ranges between 1-100 or 1-300 nM and analyzed using 1:1 Langmuir with drifting baseline.

[6] = target: T3, CD40hfc (R&Dsystems, USA); assay: SPR Biacore 3000, CD40hfc immobilized on CM5, antibody as analyte, 1:1 Langmuir
Procedure: as §2

murine CD40 = target: T4, murine CD40 (mouse, UniProt P27512 20-193, limits assumed); assay: chimeric domain mapping, flow cytometry
T4 construct: How murine CD40 was presented in the assay is not described; also called mouse CD40
Excerpt: (§3) Genes of CD40 human/mouse chimeras were synthesized (GenScript). The different chimeras were designed by exchanging domains or modules of the human CD40 with corresponding mouse CD40 domains or modules. The chimeras were designed after evaluation of the human and mouse sequences and 3D analysis of human CD40. The constructs were cloned into pcDNA3.1 vector (Invitrogen) using the restriction sites for NotI and HindIII. The mouse/human chimeras were transiently transfected into FreeStyle 293-F cells (Invitrogen), incubated 48 hours in FreeStyle 293 expression medium (Invitrogen) 37C, 8% CO2, 135 rpm.
(§4) Cells were analyzed with FACS Verse (BD Biosciences). Binding to the different chimeric constructs were determined with MFI to be either positive (+) or negative (−).

[7] = target: T5, CD40 cys1B mouse: Human CD40 with mouse module B of domain 1 (38-59) (human; mouse, UniProt P25942 21-277); assay: flow cytometry on 293-F cells transfected with the chimera; MFI scored + or -
T5 construct: Human/mouse chimera on FreeStyle 293-F cells; Human flanks inferred from the printed mouse range
T5 chain: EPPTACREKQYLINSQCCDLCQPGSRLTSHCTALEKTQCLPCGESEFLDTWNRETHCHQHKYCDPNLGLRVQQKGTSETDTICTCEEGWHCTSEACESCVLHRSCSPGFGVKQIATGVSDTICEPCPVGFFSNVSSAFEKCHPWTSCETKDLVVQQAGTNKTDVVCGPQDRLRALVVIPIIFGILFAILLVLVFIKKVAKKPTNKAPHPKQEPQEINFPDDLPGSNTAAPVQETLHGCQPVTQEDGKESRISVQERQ
Excerpt: as §3, §4

[8] = target: T6, CD40 cys2A mouse: Human CD40 with mouse module A of domain 2 (62-77) (human; mouse, UniProt P25942 21-277); assay: as above
T6 construct: Human/mouse chimera on FreeStyle 293-F cells; Human flanks inferred from the printed mouse range
T6 chain: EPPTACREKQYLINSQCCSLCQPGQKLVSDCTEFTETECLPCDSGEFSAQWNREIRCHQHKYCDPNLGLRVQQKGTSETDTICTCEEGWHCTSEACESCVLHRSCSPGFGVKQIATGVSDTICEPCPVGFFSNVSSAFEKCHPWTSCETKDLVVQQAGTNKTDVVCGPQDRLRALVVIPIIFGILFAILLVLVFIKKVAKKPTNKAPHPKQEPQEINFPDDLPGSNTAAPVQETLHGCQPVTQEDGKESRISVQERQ
Excerpt: as §3, §4

[9] = target: T7, CD40 cys3B mouse: Human CD40 with mouse module B of domain 3 (122-143) (human; mouse, UniProt P25942 21-277); assay: as above
T7 construct: Human/mouse chimera on FreeStyle 293-F cells; Human flanks inferred from the printed mouse range
T7 chain: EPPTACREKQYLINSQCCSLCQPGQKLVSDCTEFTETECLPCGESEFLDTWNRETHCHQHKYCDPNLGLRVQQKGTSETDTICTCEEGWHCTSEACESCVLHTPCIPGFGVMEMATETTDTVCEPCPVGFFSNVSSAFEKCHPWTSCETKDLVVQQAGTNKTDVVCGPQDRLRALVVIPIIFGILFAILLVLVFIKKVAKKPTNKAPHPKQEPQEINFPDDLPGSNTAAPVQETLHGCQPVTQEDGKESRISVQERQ
Excerpt: as §3, §4

T4 sequence (P27512 20-193 limits assumed): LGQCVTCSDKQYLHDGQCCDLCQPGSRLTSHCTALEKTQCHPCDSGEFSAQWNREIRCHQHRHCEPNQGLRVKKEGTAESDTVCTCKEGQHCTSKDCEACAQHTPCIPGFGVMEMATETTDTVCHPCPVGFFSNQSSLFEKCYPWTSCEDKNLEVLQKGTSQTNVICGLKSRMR

| Binder | Potency B cell proliferation (EC50) (human CD40 [1]) | B cell proliferation (human CD40 [2]) | EC50 [3] | EC50 [4] | Kd [5] | koff [5] | kon [5] | Kd [6] | koff [6] | kon [6] | B cell proliferation (see Example 3) (human CD40 [2]) | DC activation (index: IL-12p40 with antibody divided by IL-12p40 with isotype control) (human CD40 [2]) | binding result (murine CD40) | binding result [7] | binding result [8] | binding result [9] |
| --- | --- | --- | --- | --- | --- | --- | --- | --- | --- | --- | --- | --- | --- | --- | --- | --- |
| antibody 1134/1135 (antibody, V domains shown, Re-cloned from scFv into full IgG format, made in 293 Freestyle cells) VH: EVQLLESGGGLVQPGGSLRLSCAASGFTFSSYAMSWVRQAPGKGLEWVSSIYSGGGGTSYADSVKGRFTISRDNSKNTLYLQMNSLRAEDTAVYYCARGPAYSSFFDYWGQGTLVTVSS VL: not shown | 1 µg/mL | 1 | 0.025 µg/mL | 0.025 µg/mL | 3.4 nM | 0.0014 s⁻¹ | 400000 M⁻¹ s⁻¹ | 3.4 nM | 0.0014 s⁻¹ | 400000 M⁻¹ s⁻¹ | – | – | – | – | – | – |
| antibody 1150/1151 (antibody, V domains shown) VH: EVQLLESGGGLVQPGGSLRLSCAASGFTFSSYAMSWVRQAPGKGLEWVSGIGGSSSYTSYADSVKGRFTISRDNSKNTLYLQMNSLRAEDTAVYYCARYYSYHMDYWGQGTLVTVSS VL: DIQMTQSPSSLSASVGDHVTITCRASQSISSYLNWYQQKPGKAPKLLIYAASSLQSGVPSRFSGSGSGTDFTLTISSLQPEDFATYYCQQYGSAPPTFGQGTKLEIK | 0.9 µg/mL | – | 0.041 µg/mL | 0.041 µg/mL | 1.5 nM | 0.0034 s⁻¹ | 2.2e+06 M⁻¹ s⁻¹ | 1.5 nM | 0.0034 s⁻¹ | 2.2e+06 M⁻¹ s⁻¹ | 0.9 | 7.8 index | no binding | no binding | binds | binds |
| antibody 1146/1147 (antibody, V domains shown, Re-cloned from scFv into full IgG format, made in 293 Freestyle cells) VH: not shown VL: DIQMTQSPSSLSASVGDRVTITCRASQSISSYLNWYQQKPGKAPKLLIYAASSLQSGVPSRFSGSGSGTDFTLTISSLQPEDFATYYCQQYYYYPFTFGQGTKLEIK | 3.6 µg/mL | – | 0.58 µg/mL | 0.58 µg/mL | – | – | – | – | – | – | 3.6 | – | – | – | – | – |
| antibody 1132/1133 (antibody, V domains shown, Re-cloned from scFv into full IgG format, made in 293 Freestyle cells) VH: EVQLLESGGGLVQPGGSLRLSCAASGFTFSSYAMSWVRQAPGKGLEWVSGIGSYGGGTYYADSVKGRFTISRDNSKNTLYLQMNSLRAEDTAVYYCARYVNFGMDYWGQGTLVTVSS VL: DIQMTQSPSSLSASVGDRVTITCRASQSISSYLNWYQQKPGKAPKLLIYAASSLQSGVPSRFSGSGSGTDFTLTISSLQPEDFATYYCQQYGRNPPTFGQGTKLEIK | 2.2 µg/mL | – | 0.28 µg/mL | 0.28 µg/mL | 2.4 nM | 0.0081 s⁻¹ | 3.4e+06 M⁻¹ s⁻¹ | 2.4 nM | 0.0081 s⁻¹ | 3.4e+06 M⁻¹ s⁻¹ | 2.2 | 10.8 index | no binding | no binding | binds | binds |
| antibody 1148/1149 (antibody, V domains shown, Re-cloned from scFv into full IgG format, made in 293 Freestyle cells) VH: not shown VL: DIQMTQSPSSLSASVGDRVTITCRASQSISSYLNWYQQKPGKAPKLLIYAASSLQSGVPSRFSGSGSGTDFTLTISSLQPEDFATYYCQQAYYFPHTFGQGTKLEIK | 2.3 µg/mL | – | 2.2 µg/mL | 2.2 µg/mL | – | – | – | – | – | – | 2.3 | – | – | – | – | – |
| antibody 1107/1108 (antibody, V domains shown, Re-cloned from scFv into full IgG format, made in 293 Freestyle cells) VH: not shown VL: DIQMTQSPSSLSASVGDRVTITCRASQSISSYLNWYQQKPGKAPKLLIYAASSLQSGVPSRFSGSGSGTDFTLTISSLQPEDFATYYCQQYGVYPFTFGQGTKLEIK | 0.7 µg/mL | – | 0.034 µg/mL | 0.034 µg/mL | 1.3 nM | 0.0013 s⁻¹ | 1e+06 M⁻¹ s⁻¹ | 1.3 nM | 0.0013 s⁻¹ | 1e+06 M⁻¹ s⁻¹ | 0.7 | 22.3 index | no binding | binds | no binding | binds |
| antibody 1136/1137 (antibody, V domains shown, Re-cloned from scFv into full IgG format, made in 293 Freestyle cells) VH: not shown VL: DIQMTQSPSSLSASVGDRVTITCRASQSISSYLNWYQQKPGKAPKLLIYAASSLQSGVPSRFSGSGSGTDFTLTISSLQPEDFATYYCQQAYYAGLFTFGQGTKLEIK | 1 µg/mL | 1 | 1.4 µg/mL | 1.4 µg/mL | 11 nM | 0.0095 s⁻¹ | 900000 M⁻¹ s⁻¹ | 11 nM | 0.0095 s⁻¹ | 870000 M⁻¹ s⁻¹ | – | – | – | – | – | – |
